What was measured:
[1] = biological target: T1, DR5 on DR5-expressing CHO cells (UniProt O14763 56-440, limits assumed); test: FACS on DR5-expressing CHO cells (Log MFI)
T1 construct: whole, on cells; also called DR5-expressing CHO target cells
Description: The ability of Tri-Specific Binding Molecules of the present invention to bind to target cells was investigated.

[2] = biological target: T2, EphA2 on EphA2-expressing CHO cells (UniProt P29317 24-976, limits assumed); test: FACS on EphA2-expressing CHO cells (Log MFI)
T2 construct: whole, on cells; EphA2 mAb 1 is called an anti-human EphA2 antibody; also called EphA2-expressing CHO target cells

B1: EphA2 mAb 1×CD3 mAb 2×DR5 mAb 1 (other)
chain 1: DIQMTQTTSSLSASLGDRITISCRASQDISNYLNWYQQKPDGTVKLLIYYTSRLHSGVPSRFSGSGSGTDYSLTISNLEQEDIATYFCQQGYTLYTFGGGTKLEIKGGGSGGGGEVQLVESGGGLVQPGGSLRLSCAASGFTFSTYAMNWVRQAPGKGLEWVGRIRSKYNNYATYYADSVKGRFTISRDDSKNSLYLQMNSLKTEDTAVYYCVRHGNFGNSYVSWFAYWGQGTLVTVSSGGCGGGEVAALEKEVAALEKEVAALEKEVAALEKGGGDKTHTCPPCPAPEAAGGPSVFLFPPKPKDTLMISRTPEVTCVVVDVSHEDPEVKFNWYVDGVEVHNAKTKPREEQYNSTYRVVSVLTVLHQDWLNGKEYKCKVSNKALPAPIEKTISKAKGQPREPQVYTLPPSREEMTKNQVSLWCLVKGFYPSDIAVEWESNGQPENNYKTTPPVLDSDGSFFLYSKLTVDKSRWQQGNVFSCSVMHEALHNHYTQKSLSLSPGK
chain 2: QAVVTQEPSLTVSPGGTVTLTCRSSTGAVTTSNYANWVQQKPGQAPRGLIGGTNKRAPWTPARFSGSLLGGKAALTITGAQAEDEADYYCALWYSNLWVFGGGTKLTVLGGGGSGGGGQVQLKESGPGLVAPSQSLSITCTVSGFSLSRYSVHWVRQPPGKGLEWLGMIWGGGSTDYNSALKSRLSISKDNSKSQVFLKMNSLQTDDTAMYYCARKHGNYYTMDYWGQGTSVTVSSGGCGGGKVAALKEKVAALKEKVAALKEKVAALKE
heavy: EVKFLESGGGLVQPGGSLKLSCVASGFDFSRYWMSWVRQAPGKGLEWIGEINPDSNTINYTPSLKDKFIISRDNAKNTLYLQMTKVRSEDTALYYCTRRAYYGNPAWFAYWGQGTLVTVSSASTKGPSVFPLAPSSKSTSGGTAALGCLVKDYFPEPVTVSWNSGALTSGVHTFPAVLQSSGLYSLSSVVTVPSSSLGTQTYICNVNHKPSNTKVDKRVEPKSCDKTHTCPPCPAPEAAGGPSVFLFPPKPKDTLMISRTPEVTCVVVDVSHEDPEVKFNWYVDGVEVHNAKTKPREEQYNSTYRVVSVLTVLHQDWLNGKEYKCKVSNKALPAPIEKTISKAKGQPREPQVYTLPPSREEMTKNQVSLSCAVKGFYPSDIAVEWESNGQPENNYKTTPPVLDSDGSFFLVSKLTVDKSRWQQGNVFSCSVMHEALHNRYTQKSLSLSPGK
light: DIVLTQSPASLAVSLGQRATISCRASKSVSSSGYSYMHWYQQKPGQPPKVLIFLSSNLDSGVPARFSGSGSGTDFTLNIHPVEDGDAATYYCQHSRDLPPTFGGGTKLEIKRTVAAPSVFIFPPSDEQLKSGTASVVCLLNNFYPREAKVQWKVDNALQSGNSQESVTEQDSKDSTYSLSSTLTLSKADYEKHKVYACEVTHQGLSSPVTKSFNRGEC
notes: a Fab-type heavy chain with hole Fc; a kappa light chain
EC50 (read off the curve) [1]: ~0.9 nM | EC50 (read off the curve) [2]: ~0.7 nM

Source: patent publication US20170204176A1 (MacroGenics, published 2017)
